These results are taken from the supplement of paper PMC11316812.

± gives the standard deviation of the averaged measurements.

One series concerns hTERT-HMEC. Briefly: percentage of EdU-negative (G0-arrested) nuclei per well, 72 h; higher = more G0 arrest. As to conditions: reference: sequence is the full UniProt precursor, the tested protein was the secreted form or ectodomain.
Another series deals with MCF7. The description is as above. As to conditions: reference: sequence is the full UniProt precursor, the tested protein was the secreted form or ectodomain.
Setting [1] is: protein concentration 0.0225 µM.
Setting [2] is: protein concentration 0.00975 µM.
Setting [3] is: protein concentration 0.0975 µM.
Setting [4] is: protein concentration 0.01725 µM.
The mark [5] stands for this setting: protein concentration 0.1725 µM.
The mark [6] stands for this setting: protein concentration 0.03125 µM.
Setting [7] is: protein concentration 0.3125 µM.
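Note: secreted proteins added to cultured cells, EdU pulse at the end, nuclei found by Hoechst imaging, EdU status from nuclear versus surrounding ring intensity ratio, PBS as neutral control.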

Regarding “MVGKLKQNLLLACLVISSVTVFYLGQHAMECHHRIEERSQPVKLESTRTTVRTGLDLKANKTFAYHKDMPLIFIGGVPRSGTTLMRAMLDAHPDIRCGEETRVIPRILALKQMWSRSSKEKIRLDEAGVTDEVLDSAMQAFLLEIIVKHGEPAPYLCNKDPFALKSLTYLSRLFPNAKFLLMVRDGRASVHSMISRKVTIAGFDLNSYRDCLTKWNRAIETMYNQCMEVGYKKCMLVHYEQLVLHPERWMRTLLKFLQIPWNHSVLHHEEMIGKAGGVSLSKVERSTDQVIKPVNVGALSKWVGKIPPDVLQDMAVIAPMLAKLGYDPYANPPNYGKPDPKIIENTRRVYKGEFQLPDFLKEKPQTEQVE”, the “percentage of EdU-negative” value worked out at 4.95 ± 1.4% in the series on hTERT-HMEC (setting [1]), 7.95 ± 0.61% with hTERT-HMEC (protein concentration 0.225 µM), 26.5 ± 0.46% in the series with MCF7 (setting [1]) and 25.4 ± 1.6% with MCF7 (protein concentration 0.225 µM).

As to “MQQPFNYPYPQIYWVDSSASSPWAPPGTVLPCPTSVPRRPGQRRPPPPPPPPPLPPPPPPPPLPPLPLPPLKKRGNHSTGLCLLVMFFMVLVALVGLGLGMFQLFHLQKELAELRESTSQMHTASSLEKQIGHPSPPPEKKELRKVAHLTGKSNSRSMPLEWEDTYGIVLLSGVKYKKGGLVINETGLYFVYSKVYFRGQSCNNLPLSHKVYMRNSKYPQDLVMMEGKMMSYCTTGQMWARSSYLGAVFNLTSADHLYVNVSELSLVNFEESQTFFGLYKL”, the “percentage of EdU-negative” value in the series on hTERT-HMEC (setting [1]) amounted to 4.44 ± 0.26%; with hTERT-HMEC (protein concentration 0.225 µM), 7.46 ± 2.2%; with MCF7 (setting [1]), 25.2 ± 0.97%; with MCF7 (protein concentration 0.225 µM) it was 29 ± 2.4%.

With “MNLWLLACLVAGFLGAWAPAVHTQGVFEDCCLAYHYPIGWAVLRRAWTYRIQEVSGSCNLPAAIFYLPKRHRKVCGNPKSREVQRAMKLLDARNKVFAKLHHNTQTFQAGPHAVKKLSSGNSKLSSSKFSNPISSSKRNVSLLISANSGL”, the “percentage of EdU-negative” value amounted to 4.38 ± 0.21% with hTERT-HMEC (setting [2]), 5.5688 ± 0.0047% with hTERT-HMEC (setting [3]), 24.3 ± 1.7% with MCF7 (setting [2]) and 25.01 ± 0.22% with MCF7 (setting [3]).

Consider “MESRVLLRTFCLIFGLGAVWGLGVDPSLQIDVLTELELGESTTGVRQVPGLHNGTKAFLFQDTPRSIKASTATAEQFFQKLRNKHEFTILVTLKQTHLNSGVILSIHHLDHRYLELESSGHRNEVRLHYRSGSHRPHTEVFPYILADDKWHKLSLAISASHLILHIDCNKIYERVVEKPSTDLPLGTTFWLGQRNNAHGYFKGIMQDVQLLVMPQGFIAQCPDLNRTCPTCNDFHGLVQKIMELQDILAKTSAKLSRAEQRMNRLDQCYCERTCTMKGTTYREFESWIDGCKNCTCLNGTIQCETLICPNPDCPLKSALAYVDGKCCKECKSICQFQGRTYFEGERNTVYSSSGVCVLYECKDQTMKLVESSGCPALDCPESHQITLSHSCCKVCKGYDFCSERHNCMENSICRNLNDRAVCSCRDGFRALREDNAYCEDIDECAEGRHYCRENTMCVNTPGSFMCICKTGYIRIDDYSCTEHDECITNQHNCDENALCFNTVGGHNCVCKPGYTGNGTTCKAFCKDGCRNGGACIAANVCACPQGFTGPSCETDIDECSDGFVQCDSRANCINLPGWYHCECRDGYHDNGMFSPSGESCEDIDECGTGRHSCANDTICFNLDGGYDCRCPHGKNCTGDCIHDGKVKHNGQIWVLENDRCSVCSCQNGFVMCRRMVCDCENPTVDLFCCPECDPRLSSQCLHQNGETLYNSGDTWVQNCQQCRCLQGEVDCWPLPCPDVECEFSILPENECCPRCVTDPCQADTIRNDITKTCLDEMNVVRFTGSSWIKHGTECTLCQCKNGHICCSVDPQCLQEL”, for which the “percentage of EdU-negative” value in the series with hTERT-HMEC (setting [4]) was found to be 5.41 ± 0.14%; with hTERT-HMEC (setting [5]), 12.7 ± 0.33%; in the series with MCF7 (setting [4]) it was 24.4 ± 2.6%; with MCF7 (setting [5]), 28.9 ± 0.7%.

For the sequence “MVKQIESKTAFQEALDAAGDKLVVVDFSATWCGPCKMIKPFFHSLSEKYSNVIFLEVDVDDCQDVASECEVKCMPTFQFFKKGQKVGEFSGANKEKLEATINELV”, the “percentage of EdU-negative” value stood at 4.86 ± 0.3% in the series with hTERT-HMEC (setting [6]), 4.9 ± 0.23% in the series with hTERT-HMEC (setting [7]), 25.2 ± 1.2% in the series on MCF7 (setting [6]) and 23.8 ± 1.9% in the series on MCF7 (setting [7]).

Take “MAQRMTTQLLLLLVWVAVVGEAQTRIAWARTELLNVCMNAKHHKEKPGPEDKLHEQCRPWRKNACCSTNTSQEAHKDVSYLYRFNWNHCGEMAPACKRHFIQDTCLYECSPNLGPWIQQVDQSWRKERVLNVPLCKEDCEQWWEDCRTSYTCKSNWHKGWNWTSGFNKCAVGAACQPFHFYFPTPTVLCNEIWTHSYKVSNYSRGSGRCIQMWFDPAQGNPNEEVARFYAAAMSGAGPWAAWPFLLSLALMLLWLLS”: the “percentage of EdU-negative” value amounted to 15.7 ± 0.18% in the series on hTERT-HMEC (setting [1]), 10.3 ± 8.7% with hTERT-HMEC (protein concentration 0.225 µM), 25.4 ± 1.9% in the series on MCF7 (setting [1]) and 24.4 ± 0.58% in the series on MCF7 (protein concentration 0.225 µM).

“MLLAWVQAFLVSNMLLAEAYGSGGCFWDNGHLYREDQTSPAPGLRCLNWLDAQSGLASAPVSGAGNHSYCRNPDEDPRGPWCYVSGEAGVPEKRPCEDLRCPETTSQALPAFTTEIQEASEGPGADEVQVFAPANALPARSEAAAVQPVIGISQRVRMNSKEKKDLGTLGYVLGITMMVIIIAIGAGIILGYSYKRGKDLKEQHDQKVCEREMQRITLPLSAFTNPTCEIVDEKTVVVHTSQTPVDPQEGTTPLMGQAGTPGA [Q96FE7]”: the “percentage of EdU-negative” value in the series with hTERT-HMEC (setting [1]) worked out at 4.79 ± 0.62%; with hTERT-HMEC (protein concentration 0.225 µM), 5.22 ± 0.39%; in the series with MCF7 (setting [1]) it was 24.9 ± 2%; in the series on MCF7 (protein concentration 0.225 µM), 25.1 ± 0.47%.
